The source of these data is article PMC8809517, “Cofactor-independent RNA editing by a synthetic S-type PPR protein”.

Data set [1] addresses T1, GFP-9S library array, motif 4 ND N98K;D124P (synthetic construct, N98K;D124P).
T1 chain: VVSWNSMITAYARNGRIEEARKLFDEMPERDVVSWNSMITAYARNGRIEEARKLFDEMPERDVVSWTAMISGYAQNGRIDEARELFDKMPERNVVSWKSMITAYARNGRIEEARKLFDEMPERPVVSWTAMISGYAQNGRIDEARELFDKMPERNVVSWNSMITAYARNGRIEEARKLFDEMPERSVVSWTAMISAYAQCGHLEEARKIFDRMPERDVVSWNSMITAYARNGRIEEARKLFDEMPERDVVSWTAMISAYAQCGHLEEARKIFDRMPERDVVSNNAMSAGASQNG
The data set is described as follows: high-throughput RNA pulldown from lysate on Ni-NTA beads; HRP: 50 mM Tris pH 8, 150 mM NaCl, 1 mM beta-mercaptoethanol, 50 ug/ml BSA, 3 ug/ml yeast RNA, 0.5% heparin; ITC and FP: Tris pH 8, 200 mM KCl, 5% glycerol; MST: 50 mM Tris pH 8, 200 mM NaCl, 1 mM DTT, BSA, heparin, 0.05% Tween 20. To be noted: tags: N-terminal His-eGFP.

Data set [2] concerns the target T2, 9S-E2 (synthetic construct).
T2 chain: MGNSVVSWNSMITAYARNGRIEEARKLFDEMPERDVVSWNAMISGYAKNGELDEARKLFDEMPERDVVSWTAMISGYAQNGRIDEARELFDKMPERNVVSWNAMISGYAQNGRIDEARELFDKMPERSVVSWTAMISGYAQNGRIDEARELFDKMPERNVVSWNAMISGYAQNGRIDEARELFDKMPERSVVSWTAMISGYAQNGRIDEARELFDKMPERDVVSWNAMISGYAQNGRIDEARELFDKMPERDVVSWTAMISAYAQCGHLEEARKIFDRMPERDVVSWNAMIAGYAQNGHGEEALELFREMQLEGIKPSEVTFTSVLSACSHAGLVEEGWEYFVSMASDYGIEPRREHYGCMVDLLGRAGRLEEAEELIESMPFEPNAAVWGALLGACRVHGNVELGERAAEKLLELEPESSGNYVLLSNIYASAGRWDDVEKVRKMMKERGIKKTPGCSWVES
The data set is described as follows: microscale thermophoresis; HRP: 50 mM Tris pH 8, 150 mM NaCl, 1 mM beta-mercaptoethanol, 50 ug/ml BSA, 3 ug/ml yeast RNA, 0.5% heparin; ITC and FP: Tris pH 8, 200 mM KCl, 5% glycerol; MST: 50 mM Tris pH 8, 200 mM NaCl, 1 mM DTT, BSA, heparin, 0.05% Tween 20. The settings on record: protein: recombinant; tags: N-terminal TRX-His; label: 5' Cy5. A general note: MST reads how a fluorescent partner responds to local heating, with and without ligand.

For data set [3], the target named is T3, 9P-S2 (synthetic construct).
T3 chain: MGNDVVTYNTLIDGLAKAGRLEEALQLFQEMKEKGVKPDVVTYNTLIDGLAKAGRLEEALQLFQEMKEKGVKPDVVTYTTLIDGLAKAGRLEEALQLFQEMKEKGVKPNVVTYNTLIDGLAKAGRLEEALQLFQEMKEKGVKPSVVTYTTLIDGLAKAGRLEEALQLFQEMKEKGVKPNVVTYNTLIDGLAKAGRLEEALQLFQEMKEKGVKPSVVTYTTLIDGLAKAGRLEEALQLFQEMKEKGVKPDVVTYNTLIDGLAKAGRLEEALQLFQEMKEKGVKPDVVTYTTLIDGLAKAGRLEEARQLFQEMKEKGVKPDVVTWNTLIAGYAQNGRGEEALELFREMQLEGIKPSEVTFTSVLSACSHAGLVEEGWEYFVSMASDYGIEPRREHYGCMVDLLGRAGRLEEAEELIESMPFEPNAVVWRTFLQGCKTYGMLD
The data set is described as follows: high-throughput RNA pulldown on Ni-NTA beads; HRP: 50 mM Tris pH 8, 150 mM NaCl, 1 mM beta-mercaptoethanol, 50 ug/ml BSA, 3 ug/ml yeast RNA, 0.5% heparin; ITC and FP: Tris pH 8, 200 mM KCl, 5% glycerol; MST: 50 mM Tris pH 8, 200 mM NaCl, 1 mM DTT, BSA, heparin, 0.05% Tween 20. To be noted: protein: recombinant; tags: N-terminal TRX-His; label: 5' Cy5.

The target of data set [4] is T4, 9S (synthetic construct).
T4 chain: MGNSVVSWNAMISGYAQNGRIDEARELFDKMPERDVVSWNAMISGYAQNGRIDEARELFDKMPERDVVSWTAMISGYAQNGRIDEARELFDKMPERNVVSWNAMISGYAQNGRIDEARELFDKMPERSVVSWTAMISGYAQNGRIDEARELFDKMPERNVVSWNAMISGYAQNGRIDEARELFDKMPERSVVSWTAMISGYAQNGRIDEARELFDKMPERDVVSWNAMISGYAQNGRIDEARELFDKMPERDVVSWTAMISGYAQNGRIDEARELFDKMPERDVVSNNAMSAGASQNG
The description is as above. To be noted: protein: recombinant; tags: N-terminal His-eGFP; label: 5' Cy5.

Data set [5] has as its target T5, 9S-S2 PPR (synthetic construct).
T5 chain: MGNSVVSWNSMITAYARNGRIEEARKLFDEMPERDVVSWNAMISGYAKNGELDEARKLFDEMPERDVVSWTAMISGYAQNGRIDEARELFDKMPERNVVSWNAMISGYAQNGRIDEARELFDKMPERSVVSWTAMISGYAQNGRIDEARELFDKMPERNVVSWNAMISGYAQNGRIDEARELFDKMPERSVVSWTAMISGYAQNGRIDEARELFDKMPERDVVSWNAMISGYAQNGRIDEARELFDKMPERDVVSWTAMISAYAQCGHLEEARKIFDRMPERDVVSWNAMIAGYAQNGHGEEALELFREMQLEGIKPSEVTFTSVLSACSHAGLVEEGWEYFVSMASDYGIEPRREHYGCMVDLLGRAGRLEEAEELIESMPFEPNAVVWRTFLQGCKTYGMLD
Described as above. The settings on record: protein: recombinant; tags: N-terminal TRX-His; label: 5' Cy5.

For orientation: Kd means the constant that tells how readily two partners part at equilibrium.

In the case of AUUACACGUGA (ssRNA) [Cy5-rpoA], the Kd in data set [1] (label: 5' Cy5) came out at 107 nM; in data set [2], 6.8 nM; in data set [3], 68 nM; in data set [4] it was 12 nM; in data set [5], 6.4 nM.

In data set [1] (label: 5' IRDye 800CW), AUUAAACGUGA (ssRNA) [IR-rpoA-A] displayed a Kd of 194 nM.

In data set [1] (label: 5' IRDye 800CW), AUUAUACGUGA (ssRNA) [IR-rpoA-U] had an equilibrium dissociation constant (Kd) of 76.4 nM.

Turning to AUUAGACGUGA (ssRNA) [Cy5-rpoA-G], the Kd in data set [1] (label: 5' Cy5) was 105 nM.
